Assays:
[1] = tested on: cjSSB (Campylobacter jejuni (strain ATCC 33291?)); assay: fluorescence polarization; conditions: FP: 20 mM Tris pH 8.0, 30 mM NaCl, 5 mM beta-mercaptoethanol, 0.8 nM fluorescein-ssDNA; temperature not stated; one-site model
cjRecO = biological target: T1, cjRecO (Campylobacter jejuni subsp. jejuni ATCC …, UniProt Q0PC17 1-204); assay: fluorescence polarization; no saturation up to 100 uM; binding detectable from ~1 uM; Kd stated as at least 20 uM; FP: 20 mM Tris pH 8.0, 30 mM NaCl, 5 mM beta-mercaptoethanol, 0.8 nM fluorescein-ssDNA; temperature not stated; one-site model; conditions: protein: recombinant; tags: N-terminal His6 removed by thrombin (tag-free); single strand
T1 sequence: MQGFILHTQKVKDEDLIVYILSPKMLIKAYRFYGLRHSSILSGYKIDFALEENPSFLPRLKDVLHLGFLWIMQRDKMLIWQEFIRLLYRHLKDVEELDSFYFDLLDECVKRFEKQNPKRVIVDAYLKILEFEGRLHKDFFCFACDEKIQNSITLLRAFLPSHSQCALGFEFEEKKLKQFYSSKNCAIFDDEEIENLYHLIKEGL

Molecule | Kd [1] [nM] | Kd (cjRecO) [nM]
TTATAGGCATATAGGAGTAATTTTCTTGGGCTATGCAGTA [40-mer ssDNA] | 21.4 | 
TTATAGGCATATAGGAGTAATTTTCTTGGGCTATGCAGTA (ssDNA) [40-mer ssDNA] |  | > 20000

Reference: PMC9456098, “Crystal Structure of the Recombination Mediator Protein RecO from Campylobacter jejuni and Its Interaction with DNA and a Zinc Ion”
